For one molecule, Kd results are on record in patent US20170218059A1.

For this assay, the target named is histones. The assay can be described thus: ELISA. A general note: In an ELISA, binding on a coated surface is turned into a signal by an enzyme label.

B1: murine IMMU-H4 antibody (antibody, V domains shown)
VH: QVQLQQSGAELVRPGASVKLSCTASGFNIKDDYLHWVKQRPEQGLEWIGWIDPENGDTEYASKFQGKATITADTSSNTAYLQLSSLTSEDTAVYYCSSPLVHLRTFAYWGQGTLVTVS
VL: DIQLTQSPASLAVSLGQRATISCRASESVDSYDNSLHWFQQKPGQPPKLLIYLASNLESGVPARFSGSGSRTDFTLTIDPVEADDAATYYCQQNNEDPWTFGGGTKLEIKR
In the case of B1, the Kd (as a rule, the free concentration of one partner at which half of the binding sites on the other are occupied at equilibrium, for simple one-to-one binding) turned out to be 6.6 nM.
